Data on one substance can be found in article PMC10622425.

For orientation: stoichiometry N means the number of molecules, sites or subunits per partner or assembly.

Several values for one entry are separate records, joined by “and”; a condition that tells them apart may be missing. Identical values can stand only once.

This assay concerns the target M2 protein of human Influenza A virus A/WSN/33 (H1N1), wild type (Influenza A virus A/WSN/33 (H1N1)).

Take “M2 protein of human Influenza A virus A/WSN/33 (H1N1), wild type (natural protein)”: the stoichiometry N is 4 and 2 and 3.
